This data set is described as follows: soluble on expression in E. coli; label from the status in PepcDB or PDB records.
“MAYKVYLKDLADVDDGSRCESSSILTQNQPTTIASSGFVMSNPNVKSPSLPSSATNWNSEYSVTEPTMSPADQILKDSVARKKRSMVDLTELNQLYGKGYKPPAPSARTPPTIYENLAINAPSSPSATDASSVPLTFIEKHHEFKKLVPSGTDGRFELFLKVADCFD”: the “soluble on expression in E. coli” value was “not soluble”.
Next, “MAPMFGVSFDFDPDFSLLSNKTHKSRNPKPPVKLLPYRHGSNTTSSDSDSYTSDLDLPTMRLHHQWLRSPSRSKMCCSTGSSSISQSIHRA”: “not soluble”; “MAHHHHHHMDLFNCQYCSISPFDYILDYLYGDTSSKKEEKKKKSNITYDDSSSNNVSQVVSKIDEEIEKRTTNEILLLCRAWENYVHPRAKEYWKDSQQLQNILCKIANGITKNDDPILGDDYACVFWYGDKNKNDNCPIISVKKGNDNIETITYVNRVLIFLYADEASFQELQKKPKKAFTMACGNTNCINLTHISLDD”: “not soluble”; “MAGASHDIHPPKVEYFDLRDHTNTDPKGFVRHVDHYRVEPWGLYMARTSDHPQFHYLESWLLPDLGLRASIFHYHPYHQRDQDHYVDIGTFTRGDDVWKSEDHYLDLVVRTGRDTELLDVDELMEAHTTGLLDTATAEQAILTATTAIDGIAAHGHDLGRWLASIGMPIDWR”: “soluble”.
With “MGSDKIHHHHHHMRILIRADGGRDIGMGHIMRTLTLARELNKYFEVIYVCKTENEDRKTSVNGKYAKGIHKILSSGFKVKIVRENNMVEDLYEIKGDILITDSYDVNEEYFKKTSEMFHKTIYIDDMCLYDFKDVDMIINQNINADNLKYDAAGNKSLLLGCRYVMLRDEFKDLGAKIIRRKVRDVMITTGGADPFLLTLKLLYYLKQENYNFHVVVGSSFDDIYVEKLKTYEELKNINFYYNANMKELMKKCDACISAAGSTLYELCSVGVPSLSITVAENQSKAAEKFDALKIIKNLGWHNELTREKVLEEINSLSNDYNRRKNVSMTSQSIIDGMGTQRIVEKILDMV”, the “soluble on expression in E. coli” value is given as “not soluble”.
In the case of “MLYLAELLQGKNALITGAGRGIGRAVAIALAKEGVNVGLLARSEENLKAVAKEVEAEGVKAVIATADVSSYEEVTTAIETLKNGLGSIDILINNAGISKFGKFLELDVADWEKIIQVNLMGVYYATRAALPSMIEQQSGDIINISSTAGQKGAPVTSAYSASKFGVLGLTESLAMEVRKHNIRVTALTPSTVATDMAVDLGLTDGNPDKVMQAEDIAEFIVAQLKLNKRTFIKSAGLWSTNP” it was “not soluble”; in that of “AHHHHHHGSIDPRELAISAKLEGVKRIIPVVSGKGGVGKSLISTTLALVLSEQKYKVGLLDLDFHGASDHVILGFEPKELPEEDKGVIPPTVHGIKFMTIAYYTEDRPTPLRGKEISDALIELLTITRWDELDFLVVDMPPGMGDQFLDVLKYFKRGEFLIVATPSKLSLNVVRKLIELLKEEKHQILGIVENMKLDEEEDVMRIAQEYGIRYLGGIPLYRDLESKVGNVNELLATEFAEKIRGIAKKI”, “soluble”; in that of “MVGPLKIGRHEVKYPLIQGGMGVRISGGRLAGHVAKCGGVGLVAAAGISLSGLFTGANYLQSNPEAMRKELRKAYAIAPDGVIGVNIMVALTDYEELVRASIDGGAKVIVCGAGLPLTLPELTAHAPEVALVPIVSSVRAAQLIAKKWEKGFGRLPDAVVVEDPDTAGGHLGEKLENIGAGTYDQYGTIRAIKAYFLEEYGVSVPVVAAGGIWDRDDVLHAFEQGADAVQMASRFVPTVECDADDAYKQAYLECRREDIGLIMSPAGLPGRAILRNQDQIVLHDQLKGVACGNGCLKKCSYKETGERFCIVNALDRAQRGDVETGLVFCGTNAWKADRITTVQEIFDELFAVGEESEKAA”, “not soluble”.
In the case of “MPPVVPCHCTQCRKWSGHFWAATSVAMADFRLVRDEGLRWFRASDTASRGFCALCGSSLSWKPDGRDRMSFSPGAVDGPTGLATGHHIFMDEAGDYCRVSDGTPHYPGDDEA”, the “soluble on expression in E. coli” value is given as “not soluble”.
In the case of “MGSDKIHHHHHHMWSLMHPYLPATVRKWTNLNLSNHSFSLNTMKTKRLSEFFPGVRSYYIVGEIAIITPKRVNVDYNLVAEKIMQAHPKIKAVYLKKKVKGELRTNELEFLSGERISSTIYKENGVLFYVDINKVYVNPSLSGDRLKNLELVEEGSTVLDAFTGYGAIALNIAHKKRVYVVAGDINIDGLYMLKKSLSLNKIKGMIDIVQYDAHHLPFRDKVFKLSFGDNPTLIIDFKEELCRVSENVVFYILCESEDKANSSLGRTSWIKINDYSKNLFIFKGLVRC” it was “not soluble”; in that of “MAHHHHHHMHHGATLHESLPCPLVSPIVSIDQCPFQPHERSETRPPHGNASLTFYTARSRCRVNFTPGPNVTYSAENKYSWNPYYRLETENKSQRLKAAQEECNSASVSGPCPIALTPRQGQCMARCSNTSSSTAQSPMHTFGCETPAIVSRCELSPQFSSVKSESGRALLTASHSIEENSITESTCVPQFDNMMHGLPMYASIHPVGEVWPLNEMNNEENVVFDAIKPTRNEQLQQQLYPTPLLVSQNQPTVSPYPYVMESRTIQPTYVSYNKARVPLLRFSKMLPPPVRCEAMSILENENPQLPLLMMYNPVLRWYERIKALLNEDYSAWPGGSCAVNISNNKSVRLELEEPCPTLPNKAEQTRENMSQWLKECNEWWDRQFFEKSRNGDKRRNGTGRGKWRQYSIQYPYNNHNNNNKAHKVNRGMQFDGEVAFLRRGGLQ”, “not soluble”.
Turning to “MKYTVITGASSGIGYAAALAFASRGKNLVLVARRQEELNGLKLKINEMHPELDVVIRKTDLSVTEDVYKLYESLQAFQIETWINNAGFGNFASIAEQNLNKIETMLHVNIEALTILSSLFVRDYSMIDGTQLINVSSGGGYTIVADAVTYCATKFYVSAFTEGLSHELKEQGAKLQAKVLAPAATETEFAKRSFDIDEFQYDNVVPKFHTAKQMAQFMLDLYDNDKVVGIVDGLTYNYELKDPLYNFAVRQKNSNS”, the “soluble on expression in E. coli” value is reported as “not soluble”.
Next, “MAPPSQDVLKEIFNLYDEELDGKIDGTQVGDVARAAGLKPTQAMVTKAAGQEFKRKGEKRLTFEEWLPMYEQLAKEKEQGTYADFYEGLKVFDKEETGKILAAELRHILLALGERLSADEADELLKGVEDGEGMVKYEDFIKKVLAGPFPDQD”: “not soluble”.
In the case of “MAHHHHHHMGTLEAQTQGPGSMRRVVVTGMGIVSSIGSNTEEVTASLREAKSGISRAEEYAELGFRCQVHGAPDIDIESLVDRRAMRFHGRGTAWNHIAMDQAIADAGLTEEEVSNERTGIIMGSGGPSTRTIVDSADITREKGPKRVGPFAVPKAMSSTASATLATFFKIKGINYSISSACATSNHCIGNAYEMIQYGKQDRMFAGGCEDLDWTLSVLFDAMGAMSSKYNDTPSTASRAYDKNRDGFVIAGGAGVLVLEDLETALARGAKIYGEIVGYGATSDGYDMVAPSGEGAIRCMKMALSTVTSKIDYINPHATSTPAGDAPEIEAIRQIFGAGDVCPPIAATKSLTGHSLGATGVQEAIYSLLMMQNNFICESAHIEELDPAFADMPIVRKRIDNVQLNTVLSNSFGFGGTNATLVFQRYQG”, the “soluble on expression in E. coli” value is recorded as “soluble”.
As for “MHHHHHHSSGRENLYFQGMAKERRRAVLELLQRPGNARCADCGAPDPDWASYTLGVFICLSCSGIHRNIPQVSKVKSVRLDAWEEAQVEFMASHGNDAARARFESKVPSFYYRPTPSDCQLLREQWIRAKYERQEFIYPEKQEPYSAGYREGFLWKRGRDNGQFLSRKFVLTEREGALKYFNRNDAKEPKAVMKIEHLNATFQPAKIGHPHGLQVTYLKDNSTRNIFIYHEDGKEIVDWFNALRAARFHYLQVAFPGASDADLVPKLSRNYLKEGYMEKTGPKQTEGFRKRWFTMDDRRLMYFKDPLDAFARGEVFIGSKESGYTVLHGFPPSTQGHHWPHGITIVTPDRKFLFACETESDQREWVAAFQKAVDRPMLPQEYAVEAHFKHKP”, the “soluble on expression in E. coli” value is given as “soluble”.
Regarding “MGSDKIHHHHHHMSVQESVGGDVTGWWPSDNESLSPYPLYRERFCREGGLQPVFSGRTVLLPLRPGLLLSMREGQALTDLRGKREVGPAMHLEILFAAEGYSVVSGSTERYPFKPNTVSLQVTSSAVVAEFFIPAGAVIRSLAVRFSGLYLDHLASKGGFAALCSGGGDPLLLSRGVDLVMRPLSPALRPLASQILATEGATDGERLFLEAKILELISVVLSTPASGGGQSQTEPTKTALSRRDHKKIGQARELLIGDLDKTWKIKDLARHVGMNENKLKAGFRQIYDNSIYAYLQDWRMRAASHRLKQGEDSVTGVALSVGYSNPAHFAKVFRRYFGVSPSRYAEDGAPGPKKDNETY”, the “soluble on expression in E. coli” value is “not soluble”.
“MEVITFESEAYKALVGKIEKIAGYVAEAQLPSEEKKETWLDSNQLAEALGISTRTLQRLRDENLISYSMLRGRCMYKLSEVERCLEERTIRCKPQTLEDFRKNYLTRTGNDKKG”: the “soluble on expression in E. coli” value is given as “not soluble”.
As for “MRDLFDEVAGKSPLDPNEAVRRTSRAQLPKRFYTEAGVAEENGGFAVRLDGRAVKTPSRNALAAPDRALAEAIAAEWQAQGETIDPSTMPLTRLANSVIDGVAGRVEAVTDDIAKYFGSDLLFYRAEHPEELIAREGAHWDPVLFWAKDALGAHFILAQGIVHVGQPETALAAARAALPADPWLLGALHVVTTITGSALLALALAHGRLEADQVWAAAHVDEDWNIEQWGLDEEAAARRAAKQAEFAAAAQVIAALGSRRSAAALEHHHHHH”, the “soluble on expression in E. coli” value is reported as “not soluble”.
In the case of “MAHHHHHHMSDEAARQQRSAELADQVRTFFATYAGSAEERLDVVRGYEKCRGDFKKMVREYLLFDNGVEAEVQRLHRLVSTLIELGNLSPTPAWKSTSTPEALLRLEKAMHRERQEAENVLKDMAGSGTGAAGAADGDLSSLQVMIRQRQQSSYESMLNHLESKYVTKKSNARESSSAHVRPHRPLARTNVLPKSTGKPLITGKSGTCAEEASASGIRPGNVGRIPLSTAVIFCFLCYCGRYRSWLNACDLSPHLLTQPPKFPAWLRGQPITVL” it was “soluble”.
In the case of “MAHHHHHHMLRRNIRLRKEYLYLKKVEDEKKKYAEKIKSIKESYDKNKKIRGDLKDEESELRKNMNLYDEKSFDRKVDDEYFFCGLENPRVLITTSRNPSSTLENFAKELKLIIPNSEKINRGSYFIKDILNFARKNNITDVIILHEYKGIPRNLIICHLPFGPTLFCTIKDCKMRCEFNEKIDNISLCTPHLIFHNFHSDLGKRIMNIFKYLFPPVTMRTNKRKMPKHNSQIVKDNKLNKNININTNNNDTNQMDQMDQMNKIKFVTHTTQDDEDNNDHLQIYFKNNEYLNLQKYENNRVIVFFNKNDIIYFRHYNWEKNQTNEIVLKEIGPRFSFVVYKINKETLDSLNEDYEYIYRPFMNSRKALLT” it was “not soluble”.
Turning to “MKWMCSICCAAVLLAGGAAQAEAVPNEPINWGFKRSVNHQPPDAGKQLNSLIEKYDAFYLGNTKEKTIYLTFDNGYENGYTPKVLDVLKKHRVTGTFFVTGHFVKDQPQLIKRMSDEGHIIGNHSFHHPDLTTKTADQIQDELDSVNEEVYKITGKQDNLYLRPPRGVFSEYVLKETKRLGYQTVFWSVAFVDWKINNQKGKKYAYDHMIKQAHPGAIYLLHTVSRDNAEALDDAITDLKKQGYTFKSIDDLMFEKEMRLPSL”, the “soluble on expression in E. coli” value is recorded as “soluble”.
In the case of “MVGEGEIELRNELPGGEVHAAWHLRYAGHDFFVKCDEREMLRGFTAEADQLELLSRSKTVVVPKVWAVGSDRDYSFLVMDYLSPRPLDAHNAFILGQQLARLHQWSDQPQFGLDFDNALSTTPQPNTWQRRWSTFFAEQRIGWQLELAAEKGITFGNIDAIVEHVQQRLASHQPQPSLLHGDLWSANCALGPDGPYIFDPACYWGDRECDLAMLPLHTDQPPQIYDGYQSVSPLPLDFLDRQPIYQLYTLLNRARLFGGQHLATAQKAMDRLLAVLEHHHHHH” it was “not soluble”; in that of “GPGSMPVDYSKKLDALRELYERVQQKDTDIPEDVYAAAGVKNKARLKDIEKEISTTKKKVSQEVKKVTNEEIEKEYEALAKEHNMTVEEFKETVMGKGRQPALGSEFSERHAAQRKERAEQRDLKETRRQVERGDFDMTVDYV”, “soluble”.

The values above are taken from the DeepSol protein solubility set.
